Experimental data taken from patent US20160280799.

Biological target: All other MMP-12 binders

B1: human MMP-12 catalytic domain (protein)
chain: GPVWRKHYITYRINNYTPDMNREDVDYAIRKAFQVWSNVTPLKFSKINTGMADILVVFARGAHGDFHAFDGKGGILAHAFGPGSGIGGDAHFDEDEFWTTHSGGTNLFLTAVHEIGHSLGLGHSSDPKAVMFPTYKYVDINTFRLSADDIRGIQSLYG
MMP-12 proteolytic activity, colorimetric assay (BIOMOL AK-402), VHH at 7 µM: did not inhibit MMP-12
